{
  "source": "patent US6051559",
  "target": "T1, dCREB2-a (Drosophila melanogaster) (UniProt Q9VWW0)",
  "T1 sequence": "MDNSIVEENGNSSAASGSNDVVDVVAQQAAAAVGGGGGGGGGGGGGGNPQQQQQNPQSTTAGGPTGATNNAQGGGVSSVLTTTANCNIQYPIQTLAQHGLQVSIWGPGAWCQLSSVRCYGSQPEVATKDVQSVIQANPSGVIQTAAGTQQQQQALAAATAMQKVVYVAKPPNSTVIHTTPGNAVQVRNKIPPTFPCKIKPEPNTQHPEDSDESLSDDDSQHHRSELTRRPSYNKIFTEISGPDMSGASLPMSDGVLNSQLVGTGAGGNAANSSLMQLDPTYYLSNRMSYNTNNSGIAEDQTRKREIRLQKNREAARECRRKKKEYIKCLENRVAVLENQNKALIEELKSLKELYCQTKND",
  "experiment": "cell_activity",
  "conditions": "F9 cells, with PKA versus PKA alone",
  "data": [
    {"substance": "D(-71) CAT reporter CRE fragment", "values": [
      {"measurement": "activity", "value": 5.4, "unit": "fold"}
    ]}
  ]
}
